Ends that are not written are not given here.
B2: FAT domain of Focal Adhesion Kinase, wild type (hFAK904-1052) (domain or fragment, human, UniProt Q05397 904-1052, looked up)
chain: LQPQEISPPPTANLDRSNDKVYENVTGLVKAVIEMSSKIQPAPPEEYVPMVKEVGLALRTLLATVDETIPLLPASTHREIEMAQKLLNSDLGELINKMKLAQQYVMTSLQQEYKKQMLTAAHALAVDAKNLLDVIDQARLKMLGQTRPH
notes: focal adhesion kinase (FAK), human, FAT domain, residues 904-1052 (hFAK904-1052); also called FAT-WT; source: E. coli BL21(DE3), purified (His-Trap, TEV digest, Source 15Q, Ni-NTA flow-through, Superdex200); not shown: His6, N-terminal, cleaved

Tests used:
[1] = target: T1, FAT domain of FAK (hFAK904-1052 WT) (Homo sapiens, UniProt Q05397); experiment: Fluorescence anisotropy binding of FITC LD peptides to FAT-WT
T1 construct: Expression plasmids for FAT (hFAK904-1052 WT and mutants H14, H23 and H14-23); 6xHis (TEV cleavable) (N, cleaved yes); made in house; host or cells: E. coli BL21(DE3)
T1 sequence (Q05397 904-1052): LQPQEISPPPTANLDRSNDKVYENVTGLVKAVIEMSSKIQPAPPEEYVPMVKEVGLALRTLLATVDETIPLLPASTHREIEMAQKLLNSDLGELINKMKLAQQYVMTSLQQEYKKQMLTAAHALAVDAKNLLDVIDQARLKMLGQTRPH
Description: Expression plasmids for FAT (hFAK904-1052 WT and mutants H14, H23 and H14-23), Vin-FL (hVinculin1-1066) and Vin-T (hVinculin891-1066) were ordered from GenScript in the pET28(+) vector, adding a TEV cleavable N-terminal 6xHis tag to the expressed proteins. Mutant FAT-H14 contains the mutations I936A, H1025A, K1032A; FAT-H23 contains the mutations K955A, R962A, I998A and FAT-14-23 contains the combined mutations I936A, K955A, R962A, I998A, H1025A, K1032A. All plasmids were introduced into E.coli strain BL21(DE3) for expression. Cells were grown in LB media, induced with 1 mM IPTG at an OD (600 nm) of 0.6 and grown over night at 20 °C. Cells were pelleted at 6000 rpm and resuspended in 20 mM Tris pH8, 200 mM NaCl, 5% Glycerol, 10 mM imidazole, 2mM TCEP, 1mM PMSF supplemented with cOmplete protein inhibitor cocktail (Roche). Cells were lysed by sonication and insoluble components removed by centrifugation at 40 K for 1 h at 4 °C. Soluble lysates were cleared through 0.45 μm filters and loaded onto His-Trap affinity columns (Cytiva), washed with step gradients up to 30 mM imidazole and eluted with a gradient up to 500 mM imidazole. Peak-fractions were digested over night with TEV protease (molar ratio ~ 1: 20) at 4 °C. Proteins were diluted to 50 mM NaCl and loaded onto a Source 15Q column, washed with 20 mM Tris pH8, 50 mM NaCl, 5% Glycerol, 1mM TCEP and eluted with a gradient up to 1 M NaCl. Peak fractions were mixed with 1 ml of Ni-NTA beads to remove TEV and uncleaved protein, adding 10 mM imidazole to prevent non-specific binding. The flow-through was concentrated, loaded onto a Superdex200 16/60 column and eluted in 20 mM Tris pH8, 200 mM NaCl, 5% Glycerol, 2mM TCEP. Peak fractions were concentrated, aliquots flash frozen in LN2 and stored at -80 °C.
(§1) Binding curves were determined in a total of 20 µl in black 384 well plates, by titrating protein concentrations (typically up to 50 µM) at a fixed concentration of 25 nM FITC labelled LD peptides (Apeptide Co. Ltd) in 20 mM Tris pH7.5, 150 mM NaCl, 1mM TCEP. Anisotropy measurements were preformed at 22 °C on a Spark® Multimode microplate reader (Tecan) with polarizers, at an excitation wavelength of 485 nm and an emission wavelength of 535 nm (20 nm bandwidth). KD values were extracted by fitting a one-site binding model using the GraphPad Prism software, using the equation: Y = Bmax*X/(KD + X), where Y is the measured anisotropy, X the protein concentration and Bmax the maximal anisotropy value at binding saturation.

[2] = target: paxillin LD2 peptide; experiment: fluorescence polarisation; fluorescence anisotropy; protein titrated (typically up to 50 µM) at 25 nM FITC labelled LD peptide; 20 mM Tris pH7.5, 150 mM NaCl, 1mM TCEP; 22 °C; one-site binding model; apparent KD
[3] = target: T2, full-length vinculin (Vin-FL, hVinculin1-1066) (Homo sapiens, UniProt P18206); experiment: Fluorescence anisotropy binding to full-length vinculin; conditions: 25 nM FITC labelled peptide, pH7.5, 22 °C, one-site binding model, 4 measurements, read-out: Apparent KD for full-length vinculin (Vin-FL)
T2 construct: Vin-FL (hVinculin1-1066) and Vin-T (hVinculin891-1066) were ordered from GenScript; 6xHis (TEV cleavable) (N, cleaved yes); made in house; host or cells: E. coli BL21(DE3)
T2 sequence (P18206 1-1066 isoform P18206-2): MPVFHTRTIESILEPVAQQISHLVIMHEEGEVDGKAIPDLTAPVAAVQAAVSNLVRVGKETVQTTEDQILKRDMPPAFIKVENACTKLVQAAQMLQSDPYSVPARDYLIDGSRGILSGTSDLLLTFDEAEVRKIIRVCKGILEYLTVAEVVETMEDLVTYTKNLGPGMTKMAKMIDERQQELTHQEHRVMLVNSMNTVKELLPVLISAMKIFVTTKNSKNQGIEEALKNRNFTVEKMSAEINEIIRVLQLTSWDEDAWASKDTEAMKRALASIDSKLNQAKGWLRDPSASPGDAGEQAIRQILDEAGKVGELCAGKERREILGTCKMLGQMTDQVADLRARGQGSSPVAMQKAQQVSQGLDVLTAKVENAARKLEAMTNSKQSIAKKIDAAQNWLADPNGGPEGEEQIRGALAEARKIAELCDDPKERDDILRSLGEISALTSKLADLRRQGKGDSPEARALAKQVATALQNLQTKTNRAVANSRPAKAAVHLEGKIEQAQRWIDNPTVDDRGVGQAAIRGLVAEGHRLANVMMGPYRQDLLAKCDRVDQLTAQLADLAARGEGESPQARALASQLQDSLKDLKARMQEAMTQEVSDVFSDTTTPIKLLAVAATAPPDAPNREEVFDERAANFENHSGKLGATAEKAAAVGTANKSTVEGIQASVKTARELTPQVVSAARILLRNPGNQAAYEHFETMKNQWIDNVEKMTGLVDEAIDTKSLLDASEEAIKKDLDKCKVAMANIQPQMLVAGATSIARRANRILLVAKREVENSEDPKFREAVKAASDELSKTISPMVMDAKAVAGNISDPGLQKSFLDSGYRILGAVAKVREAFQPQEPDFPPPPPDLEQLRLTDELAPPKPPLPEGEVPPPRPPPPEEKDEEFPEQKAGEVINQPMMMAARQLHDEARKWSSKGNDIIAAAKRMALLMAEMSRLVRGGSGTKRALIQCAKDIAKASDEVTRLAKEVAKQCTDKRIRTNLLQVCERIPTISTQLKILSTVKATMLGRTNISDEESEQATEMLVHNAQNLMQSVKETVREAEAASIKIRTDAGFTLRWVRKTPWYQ
Description: (§2) Expression plasmids for FAT (hFAK904-1052 WT and mutants H14, H23 and H14-23), Vin-FL (hVinculin1-1066) and Vin-T (hVinculin891-1066) were ordered from GenScript in the pET28(+) vector, adding a TEV cleavable N-terminal 6xHis tag to the expressed proteins. Mutant FAT-H14 contains the mutations I936A, H1025A, K1032A; FAT-H23 contains the mutations K955A, R962A, I998A and FAT-14-23 contains the combined mutations I936A, K955A, R962A, I998A, H1025A, K1032A. All plasmids were introduced into E.coli strain BL21(DE3) for expression. Cells were grown in LB media, induced with 1 mM IPTG at an OD (600 nm) of 0.6 and grown over night at 20 °C. […]
as §1

[4] = target: T3, vinculin tail domain (Vin-T, hVinculin891-1066) (Homo sapiens, UniProt P18206); experiment: Fluorescence anisotropy binding to vinculin tail domain; conditions: 25 nM FITC labelled peptide, pH7.5, 22 °C, one-site binding model, 4 measurements, read-out: Apparent KD for vinculin tail domain (Vin-T)
T3 construct: Vin-FL (hVinculin1-1066) and Vin-T (hVinculin891-1066) were ordered from GenScript; 6xHis (TEV cleavable) (N, cleaved yes); made in house; host or cells: E. coli BL21(DE3)
T3 sequence (P18206 891-1066 isoform P18206-2): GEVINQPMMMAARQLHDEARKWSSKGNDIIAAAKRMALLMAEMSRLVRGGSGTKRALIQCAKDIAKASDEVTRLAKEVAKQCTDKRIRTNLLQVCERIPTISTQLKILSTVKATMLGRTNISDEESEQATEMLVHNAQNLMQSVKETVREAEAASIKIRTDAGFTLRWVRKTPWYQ
Description: as §2, §1

[5] = target: vinculin tail domain (hVinculin891-1066) (human) (UniProt P18206); experiment: AUC; sedimentation velocity; Vin-T at 100 µM; 20 °C, 48,000 rpm; monomer to dimer
[6] = target: paxillin LD1 peptide; experiment: fluorescence polarisation; fluorescence anisotropy; protein titrated (typically up to 50 µM) at 25 nM FITC labelled LD peptide; 20 mM Tris pH7.5, 150 mM NaCl, 1mM TCEP; 22 °C; one-site binding model; apparent KD
[7] = target: T4, FAT-Y925E phospho-mimetic mutant (human, UniProt Q05397 904-1052, Y925E); experiment: FP
T4 sequence: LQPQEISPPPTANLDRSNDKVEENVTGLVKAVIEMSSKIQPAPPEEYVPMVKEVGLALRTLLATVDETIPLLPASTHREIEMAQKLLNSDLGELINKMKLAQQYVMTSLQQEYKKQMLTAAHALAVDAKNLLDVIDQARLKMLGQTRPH

[8] = target: T5, FAT-Y925F phosphodeficient mutant (human, UniProt Q05397 904-1052, Y925F); experiment: FP
T5 sequence: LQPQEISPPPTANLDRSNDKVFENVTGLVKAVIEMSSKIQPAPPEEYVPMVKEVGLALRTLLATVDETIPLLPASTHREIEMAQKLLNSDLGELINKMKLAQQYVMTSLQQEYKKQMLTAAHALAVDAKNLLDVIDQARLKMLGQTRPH

[9] = target: T6, FAT-H14 (hFAK904-1052 with I936A, H1025A, K1032A) (human, UniProt Q05397 904-1052, I936A | H1025A | K1032A); experiment: FP
T6 sequence: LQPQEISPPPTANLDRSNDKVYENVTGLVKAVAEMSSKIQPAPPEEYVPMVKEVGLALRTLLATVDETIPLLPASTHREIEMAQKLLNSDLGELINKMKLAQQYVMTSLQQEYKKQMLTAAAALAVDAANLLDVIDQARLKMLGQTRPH

[10] = target: T7, FAT-H23 (hFAK904-1052 with K955A, R962A, I998A) (human, UniProt Q05397 904-1052, K955A | R962A | I998A); experiment: FP
T7 sequence: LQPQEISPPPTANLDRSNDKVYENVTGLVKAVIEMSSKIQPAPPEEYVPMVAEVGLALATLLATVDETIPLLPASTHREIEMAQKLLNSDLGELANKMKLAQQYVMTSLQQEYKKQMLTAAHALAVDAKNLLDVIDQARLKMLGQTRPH

[11] = target: T8, FAT domain of Focal Adhesion Kinase, wild type (hFAK904-1052) (human, UniProt Q05397 904-1052); experiment: FP
T8 chain: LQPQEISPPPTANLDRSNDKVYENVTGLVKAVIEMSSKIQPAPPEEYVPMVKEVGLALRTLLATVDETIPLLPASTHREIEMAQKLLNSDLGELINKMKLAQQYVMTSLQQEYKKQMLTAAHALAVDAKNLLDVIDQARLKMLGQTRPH

[12] = target: B2; experiment: fluorescence polarisation; fluorescence anisotropy; protein titrated (typically up to 50 µM) at 25 nM FITC labelled LD peptide; 20 mM Tris pH7.5, 150 mM NaCl, 1mM TCEP; 22 °C; one-site binding model; apparent KD; conditions: both partners purified
[13] = target: T9, paxillin LD2/4 peptide (LD2 and LD4 motifs separated by a designed linker) (FITC label (fluorescence anisotropy)); experiment: AUC; sedimentation velocity; FAT and Vin-T at 30 µM with 10 µM LD2/4 peptide; 20 mM Tris pH 7.5, 200 mM NaCl, 5% Glycerol, 1 mM TCEP; 20 °C, 58,000 rpm; absorbance at 280 nm; conditions: both partners purified
T9 chain: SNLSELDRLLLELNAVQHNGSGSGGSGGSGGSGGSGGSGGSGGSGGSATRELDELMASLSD

## SATRELDELMASLSD [LD4]
[1]; 25 nM FITC labelled peptide, 20 mM Tris pH7.5, 150 mM NaCl, 1mM TCEP, 22 °C, one-site binding model, 4 measurements, read-out: Apparent KD for FAT-WT
  Kd: 2100 ± 400 nM

## SQLDSMLGSLQSD [LD5, synthetic peptide corresponding to the paxillin LD5 motif, FITC labelled N-terminally for anisotropy]
[1]
  binding to FAT-WT, in words: no significant affinity

## full-length vinculin (hVinculin1-1066) (from UniProt P18206-2 1-1066) (natural protein)
[2]
  Kd: 1300 nM

## SVESLLDELES [LD3, synthetic peptide corresponding to the paxillin LD3 motif, FITC labelled N-terminally for anisotropy]
[1]
  binding to FAT-WT, in words: no significant affinity

## CC(C)C[C@H](NC(=O)[C@H](CCC(=O)O)NC(=O)[C@H](CC(C)C)NC(=O)[C@H](CC(C)C)NC(=O)[C@H](CC(C)C)NC(=O)[C@H](CCCNC(=N)N)NC(=O)[C@H](CC(=O)O)NC(=O)[C@H](CC(C)C)NC(=O)[C@H](CCC(=O)O)NC(=O)[C@H](CO)NC(=O)[C@H](CC(C)C)NC(=O)[C@H](CC(N)=O)NC(=O)[C@@H](N)CO)C(=O)N[C@@H](CC(N)=O)C(=O)N[C@@H](C)C(=O)N[C@H](C(=O)N[C@@H](CCC(N)=O)C(=O)N[C@@H](Cc1c[nH]cn1)C(=O)N[C@@H](CC(N)=O)C(=O)O)C(C)C [LD2]
[3]
  Kd: 1300 ± 300 nM
[4]
  Kd: 1700 ± 300 nM

## MDDLDALLADLES [LD1]
[4]
  Kd: 3100 ± 300 nM

## vinculin tail domain (hVinculin891-1066) (from UniProt P18206-2 891-1066) (domain or fragment)
[5]
  percent of Vin-T in the ~ 2.5 S form at 100 µM: 20%
  stoichiometry N: 2
[6]
  Kd: 3100 nM
[2]
  Kd: 1700 nM

## SNLSELDRLLLELNAVQHN (also: FITC label, position not given here) [paxillin LD2 peptide]
[7]
  Kd: 6000 nM
[8]
  Kd: 6000 nM
[9]
  Kd: 13300 nM
[10]
  Kd: 3900 nM
[11]
  Kd: 1800 nM

B1: paxillin LD2/4 peptide (LD2 and LD4 motifs separated by a designed linker) (peptide)
chain: SNLSELDRLLLELNAVQHNGSGSGGSGGSGGSGGSGGSGGSGGSGGSATRELDELMASLSD
modifications: also: FITC label, position not given here
[7]
  Kd: 1500 nM
[8]
  Kd: 1400 nM
[9]
  Kd: 5800 nM
[10]
  Kd: 1800 nM
[12]
  Kd: 130 ± 10 nM

## B2
[13]
  stoichiometry N: 1 FAT per LD2/4 (2:2)
[6]
  fold lower affinity than for LD2 and LD4: 10 fold
[2]
  Kd: 2000 nM

B3: FAT-H14 (hFAK904-1052 with I936A, H1025A, K1032A) (domain or fragment)
chain: LQPQEISPPPTANLDRSNDKVYENVTGLVKAVAEMSSKIQPAPPEEYVPMVKEVGLALRTLLATVDETIPLLPASTHREIEMAQKLLNSDLGELINKMKLAQQYVMTSLQQEYKKQMLTAAAALAVDAANLLDVIDQARLKMLGQTRPH
[2]
  fold reduction of affinity against FAT-WT: 7 fold

## MDDLDALLADLES (also: FITC label, position not given here) [paxillin LD1 peptide]
[7]
  Kd: 24700 nM
[8]
  Kd: 19300 nM
[9]
  Kd: 31400 nM
[11]
  Kd: 18300 nM

## ATRELDELMASLS (also: FITC label, position not given here) [paxillin LD4 peptide]
[9]
  Kd: 3600 nM
[12]
  Kd: ~2000 nM

From publication PMC12013189, “Phospho-regulated tethering of focal adhesion kinase to vinculin links force transduction to focal adhesion signaling” (Cell Communication and Signaling : CCS, 2025)
